Laboratory results: patent US20230381336A1 (SHANGHAI MIRACOGEN, published 2023)

T1: human Claudin 18.2 (human, UniProt P56856-2 1-261)
T1 sequence (looked up): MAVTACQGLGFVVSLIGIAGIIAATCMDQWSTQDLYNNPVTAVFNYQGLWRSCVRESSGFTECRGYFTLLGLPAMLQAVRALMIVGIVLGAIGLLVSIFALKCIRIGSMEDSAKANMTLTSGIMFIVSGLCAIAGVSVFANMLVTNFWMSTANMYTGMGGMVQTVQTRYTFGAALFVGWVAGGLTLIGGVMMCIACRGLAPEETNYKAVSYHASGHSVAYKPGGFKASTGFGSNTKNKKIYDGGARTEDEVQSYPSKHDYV

T2: human Claudin 18.1 (human, UniProt P56856 1-261)
T2 construct: whole, on cells; Splice variant used as specificity control
T2 sequence (looked up): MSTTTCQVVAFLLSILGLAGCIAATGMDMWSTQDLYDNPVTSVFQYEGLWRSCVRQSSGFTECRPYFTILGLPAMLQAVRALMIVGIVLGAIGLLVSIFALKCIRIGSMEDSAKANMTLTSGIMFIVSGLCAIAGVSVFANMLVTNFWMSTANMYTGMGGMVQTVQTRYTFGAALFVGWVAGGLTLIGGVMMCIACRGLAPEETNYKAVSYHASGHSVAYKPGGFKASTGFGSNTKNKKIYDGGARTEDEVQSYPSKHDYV


How the values were obtained:
human Claudin 18.2 = target: T1, human Claudin 18.2; assay: cell-based or functional assay
human Claudin 18.1 = target: T2, human Claudin 18.1; assay: flow cytometry (iQue) on HEK293 cells stably expressing human Claudin 18.1
Description: The cells were gently tapped, and 50 μL of serially diluted antibodies were added to each well (antibody concentration starting from 100 nM, 5-fold dilution for 8 gradients), and incubated at 4° C. for 1 hour. After the incubation, 140μL of 0.5% BSA was added to each well to wash 3 times, and 30 μL/well of secondary antibody AlexaFluro647 anti-human IgG (Jackson ImmunoResearch, Cat: 109-606-170) was added, and incubated at 4° C. for 40 minutes. After the incubation, 140 μL of 0.5% BSA was added to each well to wash 3 times, and finally each well was resuspended in 50 μL of PBS for detection by flow cytometry (iQue Screener).

| binding result (human Claudin 18.1) | Binder | Mean IC50 of cell killing, LT-1C8 cells (KATO stable cell line, medium Claudin 18.2 expression), 96 h, CCK-8 or Presto-Blue (human Claudin 18.2) | Mean IC50 of cell killing, LT-M11 cells (KATO stable cell line, high Claudin 18.2 expression), 96 h, CCK-8 or Presto-Blue (human Claudin 18.2) | Mean IC50 of cell killing, row without a cell line label printed under LT-M11 (taken as a second LT-M11 series) (human Claudin 18.2) |
| --- | --- | --- | --- | --- |
|  | CM311-18D10-VH3/VL2-ADC (other, MC-vc-PAB-MMAE coupled to free cysteine thiols of the DTT-reduced antibody; average DAR 3.5 per antibody; sites not stated) VH: QVQLQESGPGLVKPSETLSLTCTVSGGSISSNYAWNWIRQPPGKGLEWIGYINYSGNTNYNPSLKSRVTISRDTSKNQFSLKLSSVTAADTAVYYCATSYYGNSFIYWGQGTLVTVSS VL: not shown | 520 ng/mL | 200 ng/mL | 132 ng/mL |
|  | CM311-18D10-VH6/VL2-ADC (other, MC-vc-PAB-MMAE coupled to free cysteine thiols of the DTT-reduced antibody; average DAR 3.4 per antibody; sites not stated) VH: QVQLQESGPGLVKPSETLSLTCTVSGGSISSNYAWNWIRQPPGKGLEWIGYIYYSGNTNYNPSLKSRVTISRDTSKNQFSLKLSSVTAADTAVYYCATSYYGNSFIYWGQGTLVTVSS VL: not shown | 615 ng/mL | 350 ng/mL | 147 ng/mL |
|  | CM311-18A9-VH7/VL2-ADC (other, MC-vc-PAB-MMAE coupled to free cysteine thiols of the DTT-reduced antibody; average DAR 3.0 per antibody; sites not stated) VH: QVQLVQSGAEVKKPGASVKVSCKPSGYTFTNYLIDWVRQAPGQGLEWMGGINPGSGDTVYNEKFQGRVTLTADTSTSTVYMELSSLRSEDTAVYFCARRVRGNSFDSWGQGTLVTVSS VL: not shown | 111 ng/mL | 156 ng/mL | 51.2 ng/mL |
| no binding | 18D10 chimera (antibody, V domains shown, also called Clone 18D10; 18D10 mVH / 18D10 mVL) VH: DVQLQESGPGLVKPSQSLSLTCTVTGYSITSNYAWNWIRQFPGNKLEWMGYINYSGNTNYNPSLKSRISITRDTSKNQFFLQLNSVTAEDTATYYCATSYYGNSFIYWGQGTLVTVSA VL: DIVMTQSPSSLTVTAGEKVTMSCKSSQSLLNSGNQKNYLTWYQQKPGQPPKLLIYWASTRESGVPDRFTGSGSGTDFTLTISSVQAEDLAVYYCQNAYSFPWTFGGGTKLEIK |  |  |  |
| no binding | 18A9 chimera (antibody, V domains shown, also called Clone 18A9; 18A9 mVH / 18A9 mVL) VH: QVQLQQSGREVVRPGTSVKVSCKPSGYAFTNYLIDWVKQRPGQGLEWIGGINPGSGDTVYNEKFKAKATLTADKSSMTANMQLSSLTSDDSAVYFCARRVRGNSFDSWGQGTLVTVSA VL: DIVMSQSPSSLTVTAGEKVTMSCKSSQSLLNSGNQKNYLTWYQQKPGQPPKLLIYWASTRESGVPDRFTGSGSGKDFTLTISSVQAEDLALYYCQNNYFYPLTFGAGTKLELK |  |  |  |
